In patent publication US20170291958:

Molecular target: Flag-KRAS

B1: Flag-PIASγ (protein)
chain: MAAELVEAKNMVMSFRVSDLQMLLGFVGRSKSGLKHELVTRALQLVQFDCSPELFKKIKELYETRYAKKNSEPAPQPHRPLDPLTMHSTYDRAGAVPRTPLAGPNIDYPVLYGKYLNGLGRLPAKTLKPEVRLVKLPFFNMLDELLKPTELVPQNNEKLQESPCIFALTPRQVELIRNSRELQPGVKAVQVVLRICYSDTSCPQEDQYPPNIAVKVNHSYCSVPGYYPSNKPGVEPKRPCRPINLTHLMYLSSATNRITVTWGNYGKSYSVALYLVRQLTSSELLQRLKTIGVKHPELCKALVKEKLRLDPDSEIATTGVRVSLICPLVKMRLSVPCRAETCAHLQCFDAVFYLQMNEKKPTWMCPVCDKPAPYDQLIIDGLLSKILSECEDADEIEYLVDGSWCPIRAEKERSCSPQGAILVLGPSDANGLLPAPSVNGSGALGSTGGGGPVGSMENGKPGADVVDLTLDSSSSSEDEEEEEEEEEDEDEEGPRPKRRCPFQKGLVPAC
KRAS sumoylation (HA-SUMO3 blot of Flag immunoprecipitates): Expression of PIASγ enhanced KRAS sumoylation, which was further stimulated by expression of UBC9 (FIG. 3D)
